Results from the supplement of paper PMC9170038.

Key:
MS2 coat protein [1] = assay: apparent KD of MS2 coat protein, switch ON state; designed switch direction (-1 OFF switch, 1 ON switch): 1; higher = weaker reporter binding; details: FMN input: 0 or 200 uM; Eterna round: R93 (includes R88 designs)
Method in brief: (§1)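 Illumina sequencing clusters served as templates for on-chip transcription of the designed RNA switches. SNAP-549-labelled MS2 coat protein was then titrated in twofold steps from 0.7 or 1.5 nM to 3 µM, allowing 0.8–1.5 h per step at first and 10–20 min per step later. The buffer held 100 mM Tris-HCl pH 7.5, 80 mM KCl and 4 mM MgCl2, without or with constant ligand. Apparent KD is the median per design of normalised cluster binding-curve fits.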

MS2 coat protein [2] = assay: apparent KD of MS2 coat protein, switch OFF state (with FMN for OFF switches, without FMN for ON switches); designed switch direction (-1 OFF switch, 1 ON switch): 1; higher = weaker reporter binding; details: FMN input: 0 or 200 uM; Eterna round: R93 (includes R88 designs)
Method in brief: as §1

Sequence | apparent KD of MS2 coat protein (MS2 coat protein [1]) [nM] | apparent KD of MS2 coat protein (MS2 coat protein [2]) [nM]
UAUCAUUACACGAAGGAUAUCGAUAAUUGAACAUGAGGAUCACCCAUGUGCCAUUCUUUACAGUUCGAGAAGGUCGAGGGUGAAG [JR_SS002_Sub708] | 72.7 | 83.5
AAUAACAAAAGAAAGGAUAUGCGCACAGGAACAUGAGGAUCACCCAUGUGCCGCCAAGGCGGAUAGCAGAAGGUUCACACGCAUA [Default title] | 19.4 | 20.1
GAAAAACAUGAGGAUCACCCAUGUAGAAAUAUGGGAGGAUAUACUAAGACGAAAGUCGAUGUAGAAGGCCUAAAAG [Same State 1.4g (Mat - Mod of Eli - )] | 21.6 | 42.8
AGGAAACAUGAGGAUCACCCAUGUAAAGAUGGAGGAGGAUAUCGAAAGAAAAGAAAGAAACGAGAAGGCCUAAAAG [59%, Flamingo, 2] | 20.9 | 99.2
AAUAAUUAUAACGAGGAUAUCCGUAAUAAGACAUGAGGAUCACCCAUGUAAUAAGGGUAAAUAAAGGAGAAGGCGUAGGGUGAAA [JR_SS002_Sub002] | 44.3 | 61.1
AUAUGAGCUAUUGAGGAUAUCCAUAACAAGACAUGAGGAUCACCCAUGUAAUCAAAACAAUAAUGGGAGAAGGCAAUAGCUCAAU [SS 2 M48] | 36.7 | 44.1
AAAUAAAUGACUGAGGAUAUAUCGAUGUGUACAUGAGGAUCACCCAUGUGUGAAUAAAAAGGGUGGUAGAAGGUAGUCAACAAAC [Mod 17 of Pariah 4 by Hyphema in Round 1] | 76.9 | 66.7
AGGAGACAUGAGGAUCACCCAUGUGCGAGGUGAAGAGGAUAUAGAAGAAGAAGAAAGAAACUAGAAGGCUUAAAAA [JR_SameState1_Sub1] | 122 | 125
AAAAAAAAAAGGCAGGAUAUUCAAAAAAAAACAUGAGGAUCACCCAUGUAAAAAAAAAAAAAAUGGAAGAAGGGCCAAAAAAAAAA [Fiskers Same State 2 D1] | 18.8 | 28
GGAAGACAUGAGGAUCACCCAUGUGGGAUUAUGGGAGGAUAUACAAAGACGAGAGUCAGAGUAGAAGGCCUAGGAA [salish99-ss1-120(!)] | 28.6 | 79.1
AAAAAAUAAAAAAAGGAUAUAAUCGAUGGAACAUGAGGAUCACCCAUGUGACAUCGAAAAAUAAAAAAGAAGGAAAAAUAAAAAA [SS2: MS2 24] | 17.6 | 11.2
GGAAAGGAGAGAGAGGAUAUCCAAAGGAAAACAUGAGGAUCACCCAUGUAGAAGGUAGGAAAUUGGGAGAAGGCUCAAGAAAGAG [salish99-ss2-138] | 21 | 57.2
AGGAAACAUGAGGAUCACCCAUGUAAAAAUAUGGGAGGAUAUGCGAAAAGAAACAAAGAAGCAGAAGGCCUAAAAA [75%, Ex sub1, 21] | 21.9 | 66.9
AGGAAACAUGAGGAUCACCCAUGUAAAAAUAUGGGAGGAUAUACGAAGACGAAAGAAAAAGUAGAAGGCCUAAAAG [Garnet 14] | 63.6 | 155
AAAGACGUGGCGUAGGAUAUACUAAUAUUCACAUGAGGAUCACCCAUGUUCAUAUAUAUGAACGAGUAGAAGGACGACGAAAAAA [SameState2 Malc#1] | 59.3 | 120
GAAAAACAUGAGGAUCACCCAUGUAGAAAUAUGGGAGGAUAUACAAAGACGAAAGUCAAAGUAGAAGGCCUCAAAG [JL S1 M-MoE mod 2 In the Red] | 84.9 | 78.2
AAAAUACAUGAGGAUCACCCAUGUGAAAAUAUGGGAGGAUAUACCGAAAAAAAAAAAACGGUAGAAGGCCCAAAAA [SS! 1 MT 7] | 18.7 | 43.5
CGAUCACAUGAGGAUCACCCAUGUAUCGAUAAACGAGGAUAUGGGAGCGGGAUCUGUGGACCAGAAGGCGUACGGA [Celeus] | 23.4 | 38.7
CAUCAUGCGUCUAAGGAUAUGUCUCACAAGACAUGAGGAUCACCCAUGUAGAAUAAAUAAAUGAUGCAGAAGGUGGAGCGCAUGC [Erzausis] | 53.2 | 283
AAAAACAUGGUGCAGGAUAUAUUAAUAGUCACAUGAGGAUCACCCAUGUUCAUAUAUAUGAACGAGUAGAAGGGCGAUGAAAAAA [Mat - Same state - Malcolm Mod - D110] | 181 | 541
AAAGAAAAACUAGAGGAUAUCUAGAUGAUAACAUGAGGAUCACCCAUGUGAAGAAAGGAAUAUAGGGAGAAGGCUAGAAGAAAAA [JL Nando mod 20] | 21.8 | 28.6

Sequence | apparent KD of MS2 coat protein (MS2 coat protein [1]) [nM] | apparent KD of MS2 coat protein (MS2 coat protein [2]) [nM]
AAAAUACAUGAGGAUCACCCAUGUGAGAAAAACGCAGGAUAUGCCCGAAAAAAAAGGCGGGCAGAAGGGUGAAAAA [SameState1-II] | 35.5 | 90.4
AAAAAACAUGAGGAUCACCCAUGUGAGAACACGGGAGGAUAUACGAAGACGAAAGUCGAAGUAGAAGGCCUAAAAA [Garnet 82] | 21.2 | 75.6
UAUCAUUACACGAAGGAUAUCGAUAAUAGAACAUGAGGAUCACCCAUGUGAAAUAAAAUACAGAACGAGAAGGUCGAGGGUGAAG [JR_SS002_Sub703] | 19.7 | 16.8
AAAAAAAAAACAUAGGAUAUCCGGGCCGGGACAUGAGGAUCACCCAUGUCAAAAAAAAUUGGCCCGGAGAAGGAUGAAAAAAAAAA [SAmeState2-II] | 11.5 | 14
AACAAUCUAUCUGAGGAUAUCAUAAAAAAAACAUGAGGAUCACCCAUGUGCAGGAAAACUGCAUAUGAGAAGGCAGAUAGAUUGA [SS2: 1102] | 8.73 | 10.6
AGAAAUAAAAGAGAGGAUAUCUUAAAGAAAACAUGAGGAUCACCCAUGUAAAAGAAAAUAAAAUGGGAGAAGGCUCAUAAUAAAG [JL Skelter Mod 4 In the Red] | 151 | 109
AGGAAACAUGAGGAUCACCCAUGUAAAAGGUGGUUAGGAUAUGCGAUAAUAAAAAUAAUAGCAGAAGGGACAAGAA [Same State of Confusion3 mod Fisker] | 215 | 416
UAAAAAACGUAUGAGGAUAUCCAAAAUAAAACAUGAGGAUCACCCAUGUGAAUAAAAUAACAAUGGGAGAAGGCAUACGUAUCAU [Mat - Same state - Malcolm Mod - D138] | 46.3 | 20.8
AGGAAACAUGAGGAUCACCCAUGUAAAAAUAUGGGAGGAUAUACGAAGACGAAAGUAAGAGUAGAAGGCCUAAAAG [Garnet 9] | 23.9 | 90.6
GGAGAACAUGAGGAUCACCCAUGUCGGAGAAGGCGAGGAUAUCGAAGGAGGAAGGAAGGACGAGAAGGCGCGGCAG [salish99-SS1-01] | 15.9 | 21.4
AAGAAAGUUUACGAGGAUAUGUUCCGCAGAACAUGAGGAUCACCCAUGUGAACAAGAAAGGCGACGCAGAAGGCGUGAGCAAAGA [Anvedi] | 35.9 | 105
AAUAAAAAUAGUUAGGAUAUGAGAAUUAAGACAUGAGGAUCACCCAUGUAAUUAAAACAAGUAAAUCAGAAGGGACAGGGUGAAA [JR_SS002_Sub204] | 99.4 | 46
AAAUAACAUGAGGAUCACCCAUGUCAAAUAAAUCGAGGAUAUGGGCCCGGGUUCCGGGAGCCAGAAGGCGAAAAGA [Teledimaqu] | 16.9 | 41.6
AAAAAACAUGAGGAUCACCCAUGUAAAAAAAACACAGGAUAUCCCUUUUUUAAAUGGGAAGGAGAAGGGUGAAAAA [Nob's Hobby 11 - Jieux - Same State 1] | 43.1 | 36.2
AAGAGACAUGAGGAUCACCCAUGUAGGAUUAUGGGAGGAUAUACAAAGACGAGAGUCAGAGUAGAAGGCCUAGGAG [salish99-ss1-131(!)] | 23.2 | 57.4
AAAAAACAUGAGGAUCACCCAUGUCGAAAGACAUGAGGAUAUGUACAGACUUCGGUCUGUACAGAAGGCAUGUCAA [SS1 - 1020] | 19.4 | 107
AGGAAACAUGAGGAUCACCCAUGUAAAAAAGUGGGAGGAUAUGCGAAAAGAAAAAGAAAAGCAGAAGGCCUAAGAA [62%, Something completely different, 6] | 21.9 | 42.7
AGAAAAAAAACGCAGGAUAUCCAAAAGAAAACAUGAGGAUCACCCAUGUAAAAGAAAAUAAAAUGGGAGAAGGGCGAAAAAAAGA [Mat - Same State 2 - Eli mod - D93] | 9.91 | 18.5
CAUCAUGCGCCUAAGGAUAUGUCUCACAAGACAUGAGGAUCACCCAUGUAGCCAAAAUAAACGAUGCAGAAGGUGGAGCACAUGC [Atrexe] | 271 | 602
AAAAAAGAUCGAGAGGAUAUCCGAGUGGUAACAUGAGGAUCACCCAUGUGAAGAAAGGAACAUGAGGAGAAGGCUCGAUCAAAAA [viburnum 4] | 7.85 | 18.7
